Where two headings read alike, the source gives them in different places.
B1: 12D12 (antibody, human IgG1, V domains shown)
VH: QVQLQQPGAELVKPGASVRMSCKASGYTFTSYWVHWVKQRPGQGLEWIGVIDPSDSYTSYNQNFKGKATLTVDTSSKTAYIHLSSLTSEDSAVYFCARGERYDGDYFAMDYWGQGTSVTVSS
VL: DIVMTQSPASLSVSVGETVTITCRASENIYSNLAWYQQKQGKSPQLLVYAATNLADGVPSRFSGSRSGTQYSLKINSLQSEDFGTYYCQHFWNTPRTFGGGTKLEIK
B2: 48F12 (antibody, human IgG1, V domains shown)
VH: QVQLKESGPGLVAPSQSLSITCTVSGFSLTSYGVSWVRQPPGKGLEWLGIIWGDGSTNYHSALVSRLSISKDNSKSQVFLKLNSLQTDDTATYYCAKPNWDYYAMDYWGQGTSVTVSS
VL: DIQMTQTTSSLSASLGDRVTISCRASQDISNYLNWYQQKVDGTVKLLISYTSRLHSGVPSRFSGSGSGTDYSLTISNLEQEDIATYFCQQGITLPLTFGAGTKLELK
B3: 18E1 (antibody, human IgG1, V domains shown)
VH: QVQLQQSGAELVKPGASVRLSCKASGYTFTAHTIHWVKQRSGQGLEWIGWLYPGSGSIKYNEKFKDKATLTADKSSSTVYMELSRLTSEDSAVYFCARHTNWDFDYWGQGTTLTVSS
VL: NIVLTQSPASLAVSLGQRATISCKASQSVDYGGASYMNWYQQKPGQPPKLLIYAASNLESGIPARFSGSGSGTDLTLNIHPVEEEDAAMYYCQQSNEEPWTFGGGTKLEIK

Experiments:
[1] = molecular target: T1, human ILT2 on primary NK cells (human, UniProt Q8NHL6 24-650); test: cell-based or functional assay
T1 sequence (Q8NHL6 24-650): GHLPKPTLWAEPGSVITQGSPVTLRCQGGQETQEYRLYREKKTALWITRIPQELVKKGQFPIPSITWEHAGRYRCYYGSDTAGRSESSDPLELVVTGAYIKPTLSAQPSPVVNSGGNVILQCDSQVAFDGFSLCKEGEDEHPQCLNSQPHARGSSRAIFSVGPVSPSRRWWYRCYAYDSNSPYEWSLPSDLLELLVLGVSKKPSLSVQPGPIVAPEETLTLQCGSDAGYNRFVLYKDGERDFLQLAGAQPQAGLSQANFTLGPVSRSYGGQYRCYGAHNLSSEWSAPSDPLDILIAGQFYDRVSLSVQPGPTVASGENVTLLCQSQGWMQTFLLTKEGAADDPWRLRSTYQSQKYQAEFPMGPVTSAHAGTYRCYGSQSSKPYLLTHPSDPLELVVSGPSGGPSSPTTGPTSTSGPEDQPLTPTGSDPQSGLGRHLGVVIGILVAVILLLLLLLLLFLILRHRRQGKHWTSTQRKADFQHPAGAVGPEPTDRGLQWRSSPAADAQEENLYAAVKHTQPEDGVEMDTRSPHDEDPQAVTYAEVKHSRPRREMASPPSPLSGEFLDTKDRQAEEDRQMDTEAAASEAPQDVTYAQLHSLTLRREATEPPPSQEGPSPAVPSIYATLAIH

[2] = molecular target: T2, human ILT1 (LILRA2) on CHO cells (human, UniProt Q8N149 24-475); test: flow cytometry, CHO transfectants
T2 construct: also called CHO ILT1 cell line
T2 sequence (Q8N149 other isoform, or with tags, fused parts or gaps): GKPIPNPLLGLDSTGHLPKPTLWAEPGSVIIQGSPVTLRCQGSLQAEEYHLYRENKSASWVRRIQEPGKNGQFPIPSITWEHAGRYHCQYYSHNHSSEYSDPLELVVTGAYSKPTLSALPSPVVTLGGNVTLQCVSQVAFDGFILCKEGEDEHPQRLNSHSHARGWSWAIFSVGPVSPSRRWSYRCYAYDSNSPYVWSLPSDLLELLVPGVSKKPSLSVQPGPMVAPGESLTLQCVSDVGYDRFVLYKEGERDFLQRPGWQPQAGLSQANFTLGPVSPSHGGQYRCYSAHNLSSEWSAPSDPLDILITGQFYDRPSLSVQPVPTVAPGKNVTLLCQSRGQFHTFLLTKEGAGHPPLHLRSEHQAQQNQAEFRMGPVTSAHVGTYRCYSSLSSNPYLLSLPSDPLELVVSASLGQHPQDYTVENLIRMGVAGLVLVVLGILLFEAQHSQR

[3] = molecular target: T3, human ILT3 (LILRB4) on CHO cells (human, UniProt Q8NHJ6 24-443); test: flow cytometry, CHO transfectants
T3 construct: also called CHO ILT3 cell line

[4] = molecular target: T4, human ILT4 (LILRB2) on CHO cells (human, UniProt Q8N423 23-597); test: flow cytometry, CHO transfectants
T4 construct: also called CHO ILT4 cell line
T4 sequence (Q8N423 other isoform, or with tags, fused parts or gaps): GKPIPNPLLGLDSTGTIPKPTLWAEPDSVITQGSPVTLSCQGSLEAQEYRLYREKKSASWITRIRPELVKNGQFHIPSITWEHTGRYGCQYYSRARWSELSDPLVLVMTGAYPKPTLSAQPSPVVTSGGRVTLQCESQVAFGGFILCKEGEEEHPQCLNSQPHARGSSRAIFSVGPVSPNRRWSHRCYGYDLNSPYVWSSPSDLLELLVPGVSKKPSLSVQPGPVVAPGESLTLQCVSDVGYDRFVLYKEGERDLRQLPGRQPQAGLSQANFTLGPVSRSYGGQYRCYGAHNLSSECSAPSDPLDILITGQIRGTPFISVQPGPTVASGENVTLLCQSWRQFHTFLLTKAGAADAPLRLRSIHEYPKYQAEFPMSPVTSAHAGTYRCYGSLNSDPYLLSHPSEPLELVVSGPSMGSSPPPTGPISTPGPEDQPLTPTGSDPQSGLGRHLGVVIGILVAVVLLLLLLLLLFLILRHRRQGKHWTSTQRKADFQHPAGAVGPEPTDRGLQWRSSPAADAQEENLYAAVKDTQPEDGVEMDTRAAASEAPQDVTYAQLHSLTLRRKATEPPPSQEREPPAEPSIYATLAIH

[5] = molecular target: T5, human ILT5 (LILRB3) on CHO cells (human, UniProt O75022 24-626); test: flow cytometry, CHO transfectants
T5 construct: also called CHO ILT5 cell line

[6] = molecular target: T6, human ILT6 (LILRA3) on CHO cells (human, UniProt Q8N6C8 24-434); test: flow cytometry, CHO transfectants
T6 construct: also called CHO ILT6 cell line; human ILT-6 polypeptide
T6 sequence (Q8N6C8 other isoform, or with tags, fused parts or gaps): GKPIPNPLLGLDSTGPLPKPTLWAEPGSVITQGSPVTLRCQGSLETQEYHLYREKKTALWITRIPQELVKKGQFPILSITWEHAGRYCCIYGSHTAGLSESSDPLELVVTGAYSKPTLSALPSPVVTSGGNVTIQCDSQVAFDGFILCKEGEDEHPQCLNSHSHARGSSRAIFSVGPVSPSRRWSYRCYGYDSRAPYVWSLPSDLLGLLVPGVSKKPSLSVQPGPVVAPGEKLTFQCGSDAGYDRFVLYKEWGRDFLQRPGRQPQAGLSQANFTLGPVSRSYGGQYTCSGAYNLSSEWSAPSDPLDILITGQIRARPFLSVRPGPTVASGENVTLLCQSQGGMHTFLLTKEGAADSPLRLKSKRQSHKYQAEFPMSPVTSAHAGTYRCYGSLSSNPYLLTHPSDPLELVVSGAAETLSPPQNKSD

[7] = molecular target: T7, human ILT7 (LILRA4) on CHO cells (human, UniProt P59901 28-494); test: flow cytometry, CHO transfectants
T7 construct: also called CHO ILT7 cell line

[8] = molecular target: T8, human ILT8 (LILRA6) on CHO cells (human, UniProt Q6PI73 24-477); test: flow cytometry, CHO transfectants
T8 construct: also called CHO ILT8 cell line

[9] = molecular target: T9, human ILT2 (LILRB1) expressed at the surface of transfected cells (human, UniProt Q8NHL6 24-650); test: flow cytometry, CHO-ILT2 cells
T9 construct: also called CHO-ILT2; CHO ILT2 cell line
T9 sequence (Q8NHL6 24-650): as the sequence (Q8NHL6 24-650) above
Description: Cells were incubated with various concentrations of unlabeled anti-ILT2 antibodies from 30 μg/ml to 5×10-⁴ μg/ml, for 30 minutes at 4° C. After washes with staining buffer, cells were incubated for 30 min at 4° C. with Goat anti-human H+L AF488 secondary antibody (Jackson Immunoresearch #109-546-088) or Goat anti-mouse H+L AF488 secondary antibody for commercially available antibodies (Jackson Immuoresearch #115-545-146). Fluorescence was measured on an Accury C6 flow cytometer equipped with an HTFC plate loader.

[10] = molecular target: T1, human ILT2 on primary NK cells; test: flow cytometry, primary NK cells
[11] = molecular target: T10, anchored ILT2 D2 domain protein (human); test: flow cytometry, CHO cells with anchored ILT2 domain proteins
T10 construct: on CHO cells; the entry includes leader remnant, V5 tag and CD24 GPI anchor signal
T10 sequence (chain, as listed by the source limits assumed): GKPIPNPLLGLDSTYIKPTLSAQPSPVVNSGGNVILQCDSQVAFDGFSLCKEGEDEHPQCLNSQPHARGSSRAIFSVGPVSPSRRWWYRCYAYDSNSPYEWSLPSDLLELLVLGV

[12] = molecular target: T11, anchored ILT2 D2-D3 domain protein (human, UniProt Q8NHL6 122-321); test: as above
T11 construct: on CHO cells; the entry includes leader remnant, V5 tag and CD24 GPI anchor signal
T11 sequence (Q8NHL6 other isoform, or with tags, fused parts or gaps limits assumed): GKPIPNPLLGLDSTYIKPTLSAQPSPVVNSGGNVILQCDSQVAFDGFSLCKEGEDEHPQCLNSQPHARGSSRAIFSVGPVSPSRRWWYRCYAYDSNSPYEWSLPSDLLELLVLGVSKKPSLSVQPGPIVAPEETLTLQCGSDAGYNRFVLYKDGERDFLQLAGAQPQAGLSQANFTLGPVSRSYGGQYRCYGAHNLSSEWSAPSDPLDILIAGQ

[13] = molecular target: T12, anchored ILT2 D3-D4 domain protein (human, UniProt Q8NHL6 223-650); test: as above
T12 construct: on CHO cells; the entry includes leader remnant, V5 tag, and the ILT2 transmembrane and cytoplasmic parts

[14] = molecular target: T13, anchored ILT2 D2-D3-D4 domain protein (human, UniProt Q8NHL6 122-650); test: as above
T13 construct: on CHO cells; the entry includes leader remnant, V5 tag, and the ILT2 transmembrane and cytoplasmic parts
T13 sequence (Q8NHL6 other isoform, or with tags, fused parts or gaps limits assumed): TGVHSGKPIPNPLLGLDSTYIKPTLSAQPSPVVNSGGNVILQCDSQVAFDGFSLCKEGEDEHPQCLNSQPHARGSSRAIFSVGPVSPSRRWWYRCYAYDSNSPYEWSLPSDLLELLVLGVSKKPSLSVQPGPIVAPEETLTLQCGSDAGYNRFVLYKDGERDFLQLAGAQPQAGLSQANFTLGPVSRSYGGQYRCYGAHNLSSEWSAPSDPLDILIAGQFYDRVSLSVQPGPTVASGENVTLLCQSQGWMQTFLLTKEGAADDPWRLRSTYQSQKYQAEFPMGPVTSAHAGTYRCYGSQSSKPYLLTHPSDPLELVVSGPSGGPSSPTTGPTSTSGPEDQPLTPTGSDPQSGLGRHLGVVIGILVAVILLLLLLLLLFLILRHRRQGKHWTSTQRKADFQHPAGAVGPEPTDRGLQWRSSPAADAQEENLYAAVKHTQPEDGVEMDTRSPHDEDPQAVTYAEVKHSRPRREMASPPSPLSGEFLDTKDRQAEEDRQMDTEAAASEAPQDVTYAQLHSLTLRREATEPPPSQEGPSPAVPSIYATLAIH

[15] = molecular target: T14, ILT-2_6xHis recombinant protein (human, UniProt Q8NHL6 24-458); test: SPR, antibody captured on Protein-A, soluble ILT2 analyte
T14 construct: monomers purified by SEC; also called recombinant 6xHIS tagged ILT2; recombinant human ILT2 proteins
T14 sequence (Q8NHL6 other isoform, or with tags, fused parts or gaps limits assumed): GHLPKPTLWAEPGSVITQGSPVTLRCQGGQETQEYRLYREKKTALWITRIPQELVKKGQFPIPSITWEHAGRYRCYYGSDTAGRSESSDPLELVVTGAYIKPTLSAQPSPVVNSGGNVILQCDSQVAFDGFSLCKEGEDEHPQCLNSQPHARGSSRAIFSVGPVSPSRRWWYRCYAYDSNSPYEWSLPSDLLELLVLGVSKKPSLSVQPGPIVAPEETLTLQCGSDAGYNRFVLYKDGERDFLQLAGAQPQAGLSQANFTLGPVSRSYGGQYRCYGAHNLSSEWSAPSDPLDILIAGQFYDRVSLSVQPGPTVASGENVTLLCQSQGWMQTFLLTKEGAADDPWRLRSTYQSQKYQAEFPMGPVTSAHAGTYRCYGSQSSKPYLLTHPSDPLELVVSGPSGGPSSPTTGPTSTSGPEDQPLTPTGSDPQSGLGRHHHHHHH
Description: (§1) Measurements were performed on a Biacore T200 apparatus (Biacore GE Healthcare) at 25° C. In all Biacore experiments HBS-EP+(Biacore GE Healthcare) and NaOH 10 mM served as running buffer and regeneration buffer respectively. Sensorgrams were analyzed with Biacore T100 Evaluation software. Protein-A was purchased from (GE Healthcare). Human ILT2 recombinant proteins were cloned, produced and purified at Innate Pharma. Protein-A proteins were immobilized covalently to carboxyl groups in the dextran layer on a Sensor Chip CM5. The chip surface was activated with EDC/NHS (N-ethyl-N′-(3-dimethylaminopropyl) carbodiimidehydrochloride and N-hydroxysuccinimide (Biacore GE Healthcare)). Protein-A was diluted to 10 μg/ml in coupling buffer (10 mM acetate, pH 5.6) and injected until the appropriate immobilization level was reached (i.e. 600 RU). Deactivation of the remaining activated groups was performed using 100 mM ethanolamine pH 8 (Biacore GE Healthcare). […] For blank subtraction, cycles were performed again replacing ILT2 proteins with running buffer. The monovalent affinity analysis was conducted following a regular Capture-Kinetic protocol as recommended by the manufacturer (Biacore GE Healthcare kinetic wizard). Seven serial dilutions of human ILT2 proteins, ranging from 1.95 nM to 250 nM were sequentially injected over the captured antibodies and allowed to dissociate for 10 min before regeneration. The entire sensorgram sets were fitted using the 1:1 kinetic binding model or two state reaction model, as a function of the profile of the curves.

[16] = molecular target: T15, ILT2 mutant 1 (human, UniProt Q8NHL6 24-650); test: flow cytometry titration on HEK293T cells transfected with ILT2 mutant 1
T15 construct: transfected in HEK293T cells; also called M1

[17] = molecular target: T16, ILT2 mutant 2 (human, UniProt Q8NHL6 24-650); test: flow cytometry titration on HEK293T cells transfected with ILT2 mutant 2
T16 construct: transfected in HEK293T cells; also called M2

[18] = molecular target: T9, human ILT2 (LILRB1) expressed at the …; test: flow cytometry titration on HEK293T cells transfected with wild-type ILT2
[19] = molecular target: T17, anchored ILT2 D4 domain protein (human, UniProt Q8NHL6 322-650); test: flow cytometry on CHO cells expressing the anchored ILT2 D4 domain protein (SEQ ID NO: 49); stacked histograms, axis without numbers
T17 construct: on CHO cells; the entry includes leader remnant, V5 tag, and the ILT2 transmembrane and cytoplasmic parts
T17 sequence (Q8NHL6 other isoform, or with tags, fused parts or gaps limits assumed): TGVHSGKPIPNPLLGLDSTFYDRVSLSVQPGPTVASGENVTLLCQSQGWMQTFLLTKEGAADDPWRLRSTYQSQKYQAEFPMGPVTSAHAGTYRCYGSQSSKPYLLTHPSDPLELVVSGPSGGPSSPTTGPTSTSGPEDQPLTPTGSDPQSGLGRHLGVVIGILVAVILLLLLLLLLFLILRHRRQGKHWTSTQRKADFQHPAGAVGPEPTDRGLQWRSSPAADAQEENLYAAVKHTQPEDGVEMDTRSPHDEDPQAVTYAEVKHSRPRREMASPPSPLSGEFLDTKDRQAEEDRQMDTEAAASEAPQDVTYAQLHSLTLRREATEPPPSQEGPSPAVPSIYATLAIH

[20] = molecular target: T18, anchored ILT2 D3 domain protein (human); test: flow cytometry on CHO cells expressing the anchored ILT2 D3 domain protein (SEQ ID NO: 48); stacked histograms, axis without numbers, no control histogram
T18 construct: on CHO cells; the entry includes leader remnant, V5 tag and CD24 GPI anchor signal
T18 sequence (chain, as listed by the source limits assumed): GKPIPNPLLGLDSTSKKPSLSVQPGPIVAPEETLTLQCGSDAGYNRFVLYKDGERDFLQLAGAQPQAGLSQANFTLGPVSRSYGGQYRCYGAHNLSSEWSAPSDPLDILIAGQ

[21] = molecular target: T19, biotinylated BirA-tagged ILT2 protein tetramerised on APC-conjugated streptavidin (human, UniProt Q8NHL6 24-458, limits assumed, 1 biotin molecule per ILT2 protein (BirA tag)); test: flow cytometry blocking assay: ILT2-streptavidin-APC complexes pre-incubated with antibody, then added to K562 cells expressing HLA-G; blocked ligand HLA-G
T19 construct: ratio 1 streptavidin per 4 ILT2 protein; streptavidin-APC not written as a chain; also called ILT2-SA tetramers; recombinant biotinylated ILT2
T19 sequence (Q8NHL6 24-458 limits assumed): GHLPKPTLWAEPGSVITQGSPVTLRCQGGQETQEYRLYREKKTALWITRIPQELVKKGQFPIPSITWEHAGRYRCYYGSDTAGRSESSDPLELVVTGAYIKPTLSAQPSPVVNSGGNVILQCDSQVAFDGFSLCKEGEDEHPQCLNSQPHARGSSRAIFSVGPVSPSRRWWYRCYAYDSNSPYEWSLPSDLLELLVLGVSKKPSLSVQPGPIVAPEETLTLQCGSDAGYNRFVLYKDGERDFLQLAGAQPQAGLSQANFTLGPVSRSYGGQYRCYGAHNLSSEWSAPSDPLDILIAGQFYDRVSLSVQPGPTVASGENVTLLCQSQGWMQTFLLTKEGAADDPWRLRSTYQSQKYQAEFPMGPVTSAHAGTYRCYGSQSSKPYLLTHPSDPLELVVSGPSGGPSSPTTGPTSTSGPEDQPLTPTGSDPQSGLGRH

[22] = molecular target: T19, biotinylated BirA-tagged ILT2 protein …; test: flow cytometry blocking assay: ILT2-streptavidin-APC complexes pre-incubated with antibody, then added to WIL2-NS cells expressing HLA-A2; blocked ligand HLA-A2
[23] = molecular target: T16, ILT2 mutant 2; test: flow cytometry, ILT2 point mutants
[24] = molecular target: T18, anchored ILT2 D3 domain protein; test: flow cytometry, CHO cells with anchored ILT2 domain proteins
[25] = molecular target: T17, anchored ILT2 D4 domain protein; test: as above
[26] = molecular target: T14, ILT-2_6xHis recombinant protein; test: SPR, antibody captured on Protein-A, soluble ILT2 analyte; 1:1 Binding
Description: as §1

[27] = molecular target: T20, anchored ILT2 D1-D2 domain protein (human, UniProt Q8NHL6 24-222); test: flow cytometry, CHO cells with anchored ILT2 domain proteins
T20 construct: on CHO cells; the entry includes leader remnant, V5 tag and CD24 GPI anchor signal

[28] = molecular target: T21, anchored ILT2 D1-D2-D3 domain protein (human, UniProt Q8NHL6 24-321); test: as above
T21 construct: on CHO cells; the entry includes leader remnant, V5 tag and CD24 GPI anchor signal

[29] = molecular target: T9, human ILT2 (LILRB1) expressed at the …; test: flow cytometry titration on HEK293T cells transfected with wild-type ILT2; remark: listed apart in the source
[30] = molecular target: T22, ILT2 mutant 4-1 (human, UniProt Q8NHL6 24-650); test: flow cytometry titration on HEK293T cells transfected with ILT2 mutant 4-1
T22 construct: transfected in HEK293T cells

[31] = molecular target: T23, ILT2 mutant 4-2 (human, UniProt Q8NHL6 24-650); test: flow cytometry titration on HEK293T cells transfected with ILT2 mutant 4-2
T23 construct: transfected in HEK293T cells

[32] = molecular target: T24, Mutant D4-4; test: flow cytometry titration on HEK293T cells transfected with ILT2 mutant 4-4
T24 construct: also called ILT2 mutant 4-4; mutant 4-4

[33] = molecular target: T25, ILT2 mutant 4-5 (human, UniProt Q8NHL6 24-650); test: flow cytometry titration on HEK293T cells transfected with ILT2 mutant 4-5
T25 construct: transfected in HEK293T cells

[34] = molecular target: T26, Mutant D4-1B; test: flow cytometry titration on HEK293T cells transfected with ILT2 mutant 4-1b
T26 construct: read as S304F; also called ILT2 mutant 4-1b; mutant 4-1b

[35] = molecular target: T27, anchored ILT2 D1 domain protein (human); test: flow cytometry on CHO cells expressing the anchored ILT2 D1 domain protein (SEQ ID NO: 46); stacked histograms, axis without numbers
T27 construct: on CHO cells; the entry includes leader remnant, V5 tag and CD24 GPI anchor signal

| Binder | CD137 expression on ILT2-positive primary NK cells [1] [fold] | CD137 expression on NK cells of urothelial cancer patients with HLA-A2-expressing B cells [1] [fold] | binding result [2] | binding result [3] | binding result [4] | binding result [5] | binding result [6] | binding result [7] | binding result [8] | EC50 [9] [µg/mL] | EC50 [10] [µg/mL] | binding result [11] | binding result [12] | binding result [13] | binding result [14] | Kd [15] [nM] | koff [15] [s⁻¹] | binding result [20] | IC50 (read off the curve) [22] [µg/mL] | further results |
| --- | --- | --- | --- | --- | --- | --- | --- | --- | --- | --- | --- | --- | --- | --- | --- | --- | --- | --- | --- | --- |
| B1 | 2 | > 2 | no binding | no binding | no binding | no binding | no binding | no binding | no binding | 0.36 | 0.09 | no binding | no binding | no binding | no binding | 1 | 0.00042 | no binding | ~0.1 | kon [15]: 430000 M⁻¹ s⁻¹; EC50 (read off the curve) [16]: ~0.4 µg/mL; binding result [17]: no binding (tested: about 20 µg/ml); EC50 (read off the curve) [18]: ~0.5 µg/mL; binding result [19]: no binding; IC50 (read off the curve) [21]: ~0.2 µg/mL |
| B2 |  |  |  |  |  |  | no binding |  |  |  |  | no binding | no binding | no binding | no binding |  |  |  | ~0.1 | binding result [23]: no binding; binding result [24]: no binding; binding result [25]: no binding; Kd [26]: 0.2 nM; koff [26]: 0.0001 s⁻¹; kon [26]: 500000 M⁻¹ s⁻¹ |
| B3 | 2 | > 2 | no binding | no binding | no binding | no binding | no binding | no binding | no binding | 0.12 | 0.11 | no binding | no binding |  |  | 0.2 | 0.00011 | no binding |  | binding result [27]: no binding; binding result [28]: no binding; EC50 (read off the curve) [29]: ~0.3 µg/mL; binding result [30]: no binding (tested: about 20 µg/ml); binding result [31]: no binding (tested: about 20 µg/ml); binding result [32]: binds; binding result [33]: binds; binding result [34]: binds; binding result [35]: no binding |

Reference: patent US20220025056A1 (INNATE PHARMA, published 2022)
